From PMC9141747

Key:
[1] = molecular target: T1, H-NS (Escherichia coli K1 (RS218?)) (UniProt P0ACF8); test: EMSA; conditions: 10 mM Tris pH 7.5, 1 mM EDTA, 100 mM KCl, 0.1 mM DTT, 5% glycerol, 0.01 mg/mL BSA
T1 sequence: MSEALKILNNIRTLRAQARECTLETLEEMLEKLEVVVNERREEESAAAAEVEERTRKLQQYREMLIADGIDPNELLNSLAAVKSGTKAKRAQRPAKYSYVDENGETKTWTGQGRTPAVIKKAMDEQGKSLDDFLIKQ

[2] = tested on: T2, YbdO (Escherichia coli K1 (RS218?)), ORF:f8d494c4; test: EMSA; conditions: 10 mM Tris pH 7.5, 1 mM EDTA, 100 mM KCl, 0.1 mM DTT, 5% glycerol, 0.01 mg/mL BSA; […]
T2 sequence: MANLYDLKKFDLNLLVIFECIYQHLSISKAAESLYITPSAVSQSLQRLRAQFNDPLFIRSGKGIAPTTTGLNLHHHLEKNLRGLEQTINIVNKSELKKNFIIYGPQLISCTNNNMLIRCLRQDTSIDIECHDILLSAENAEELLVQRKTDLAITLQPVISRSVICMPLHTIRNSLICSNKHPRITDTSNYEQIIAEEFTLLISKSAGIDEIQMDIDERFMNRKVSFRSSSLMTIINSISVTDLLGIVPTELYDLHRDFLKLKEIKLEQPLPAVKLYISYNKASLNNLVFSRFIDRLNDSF

Sequence	binding ([1]; […])	binding [2]	binding ([1]; 20 ng DNA in 20 uL, 25 C, 30 min, native 8% PAGE in 0.5x TBE, GelRed stain)
ACATACTCCGTTGTATTGTCTCTTCCATAAATCATTCACTTGATCAATAATGTTGTTGTATTTATATGTATTATGTTTTTCTGCTTAACTTTGGATTAAGATTTTCTAAAATAGCATAGCTGTCAGGTGGGTTACGAGCAATTCATGCGTTTTTAGGATGGTTGAAAAGCAGAGAGAGATTTCAACCATCGATGAATTATATTCTATTTATTCCCCATAATGATATTAAGTGTTTTCTGATCGGGTAATCCGACGGCTTGTTGCAGGGTA (double strand) [PybdO]	binds	–	–
GCGGCCCCAGGCCGAGCCAGTTTACCCGCTCTGAGACCTGCGCCAGCTGGCAGGTCAGGCCAATCCGCGCCGGATGCGGTGTATCGCTTGCCACCGCAACATCCACATTGATGACCATCTCACCGTGCCCATCAATCCGGTAGG (double strand) [lacZ fragment]	–	no binding	no binding
TTTCCTGAGAAATTAACTCTGCATTCTAAAACGGCCAGTTTTCTGAAATTACCAGAAGACCGAATACATTCATGCCTGAAGAATGGATTAGAAGAAACGAGACGGAAATAGATCTATTTATCCCTGCGGAAATAATTTCTGCTGAAATTTTTTTGCGGCTATTAAAAAGGTCAAACCGTCTGAGTAAATTTTATCCAGTTACAAACAAGTATTACCTCCAGTGTATTGGTAGCTGTTAAGCCAAGGGCGGTAGCGTACCTGAAGAGATTAGGATCACATCATCAAATGG (double strand) [PkpsM]	–	binds	–
